# Laboratory results as given in patent US7608683B2, “Stress proteins and peptides and methods of use thereof” (The Regents of the University of California, priority 2000, dated 2009).
# Test system: PBMC of subjects with JIA
# Test: T cell proliferation assay, PBMC of subjects with JIA
# Type: cell-based, human
# Conditions: majority of JIA subjects; SI of 2 or higher positive
molecule,measurement,value
"whole human hsp60: whole human hsp60 protein (protein, Homo sapiens hsp60, whole human hsp60 protein) MLRLPTVFRQMRPVSRVLAPHLTRAYAKDVKFGADARALMLQGVDLLADAVAVTMGPKGRTVIIEQGWGSPKVTKDGVTVAKSIDLKDKYKNIGAKLVQDVANNTNEEAGDGTTTATVLARSIAKEGFEKISKGANPVEIRRGVMLAVDAVIAELKKQSKPVTTPEEIAQVATISANGDKEIGNIISDAMKKVGRKGVITVKDGKTLNDELEIIEGMKFDRGYISPYFINTSKGQKCEFQDAYVLLSEKKISSIQSIVPALEIANAHRKPLVIIAEDVDGEALSTLVLNRLKVGLQVVAVKAPGFGDNRKNQLKDMAIATGGAVFGEEGLTLNLEDVQPHDLGKVGEVIVTKDDAMLLKGKGDKAQIEKRIQEIIEQLDVTTSEYEKEKLNERLAKLSDGVAVLKVGGTSDVEVNEKKDRVTDALNATRAAVEEGIVLGGGCALLRCIPALDSLTPANEDQKIGIEIIKRTLKIPAMTIAKNAGVEGSLIVEKIMQSSSEVGYDAMAGDFVNMVEKGIIDPTKVVTALLDAAGVASLLTTAEVVVTEIPKEEKDPGMGAMGGMGGGMGGGMF",T cell proliferative response to whole hsp60,positive T cell proliferative response
